Laboratory results as given in US20050261179.

Key:
[1] = tested on: adrenomedullin (synthetic human AM)
[2] = target: human complement factor H (UniProt P08603)
Sequence of human complement factor H (P08603 19-1231): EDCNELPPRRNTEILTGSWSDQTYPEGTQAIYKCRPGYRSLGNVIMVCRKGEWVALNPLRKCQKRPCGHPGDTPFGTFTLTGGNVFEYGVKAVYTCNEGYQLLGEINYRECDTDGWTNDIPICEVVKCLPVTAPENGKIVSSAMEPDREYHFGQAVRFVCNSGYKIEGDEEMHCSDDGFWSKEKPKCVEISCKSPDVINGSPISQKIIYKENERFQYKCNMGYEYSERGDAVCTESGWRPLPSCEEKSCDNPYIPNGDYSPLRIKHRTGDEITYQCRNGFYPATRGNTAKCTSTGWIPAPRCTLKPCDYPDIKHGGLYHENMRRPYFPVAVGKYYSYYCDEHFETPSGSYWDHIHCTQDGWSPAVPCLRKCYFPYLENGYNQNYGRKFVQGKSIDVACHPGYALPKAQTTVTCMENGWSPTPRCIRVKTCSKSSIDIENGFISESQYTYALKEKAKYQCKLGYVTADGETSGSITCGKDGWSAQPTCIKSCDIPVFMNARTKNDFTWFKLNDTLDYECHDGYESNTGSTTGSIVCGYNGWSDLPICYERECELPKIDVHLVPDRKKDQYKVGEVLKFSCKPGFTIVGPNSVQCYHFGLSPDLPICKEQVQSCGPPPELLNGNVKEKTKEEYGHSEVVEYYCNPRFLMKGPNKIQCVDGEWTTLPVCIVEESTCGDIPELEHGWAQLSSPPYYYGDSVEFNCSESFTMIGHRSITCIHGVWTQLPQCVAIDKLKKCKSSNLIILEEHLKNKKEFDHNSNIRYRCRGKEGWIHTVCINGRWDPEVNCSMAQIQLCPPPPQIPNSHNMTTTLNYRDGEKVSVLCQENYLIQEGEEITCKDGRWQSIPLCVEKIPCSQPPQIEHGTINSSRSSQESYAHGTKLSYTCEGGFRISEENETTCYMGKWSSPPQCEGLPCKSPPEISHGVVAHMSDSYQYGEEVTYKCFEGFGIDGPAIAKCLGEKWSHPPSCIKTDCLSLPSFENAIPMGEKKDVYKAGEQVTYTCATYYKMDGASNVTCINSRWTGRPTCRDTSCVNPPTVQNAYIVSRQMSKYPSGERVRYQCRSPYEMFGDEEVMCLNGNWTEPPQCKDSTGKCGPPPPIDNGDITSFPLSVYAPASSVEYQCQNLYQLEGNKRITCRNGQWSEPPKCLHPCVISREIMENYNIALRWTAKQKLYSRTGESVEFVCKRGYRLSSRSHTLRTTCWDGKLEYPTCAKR

Substance: human recombinant MMP-9
- degradation of synthetic AM (gel) [1]: The resistance of AM to degradation by MMP-9
- degradation of factor H (gel) [2]: is not a substrate for either one of the MMPs
